Results published in patent publication US20210079074A1.

Tests used:
[1] = target: recombinant MS4A4A soluble polypeptide JS5; assay: ELISA, 0.4 ug/ml antibody
[2] = target: human MS4A4A (human), Q96JQ5; assay: FACS, U937-huMS4A4A, 5 ug/ml; settings: remark: other sources report otherwise
[3] = target: human MS4A4A (human), Q96JQ5; assay: FACS, U937-huMS4A4A, 5 ug/ml; settings: remark: other sources report otherwise; remark: listed apart in the source

Row | OD450 [1] | MFI [2] | MFI [3] | Binder
1 | 0.892 |  |  | anti-MS4A4A antibody 4A-357 (antibody, V domains shown) VH: QVQLVQSGSELKKPGASVKVSCKASGYIFTSYGLSWVRQAPGQGLEWMGWINTYSGVPTYAQGFTGRFVFSLDTSVSTAYLQISSLKAEDTAVYYCARTLADYWGQGTLVTVSS VL: DVVMTQSPLSLPVTLGQPASISCKSSQSLLYSDGKTYLSWFQQRPGQSPRRLIYEVSKLDSGVPDRFSGSGSGTDFTLKISRVEAEDVGVYYCWQGIDFHQTFGGGTKVEIK
2 | 0.79 |  |  | anti-MS4A4A antibody 4A-361 (antibody, V domains shown) VH: QVQLVQSGSELKKPGASVKVSCKASGYIFTSYGLSWVRQAPGQGLEWMGWINTYSGVPTYAQGFTGRFVFSLDTSVSTAYLQISSLKAEDTAVYYCARTLADYWGQGTLVTVSS VL: DVVMTQSPLSLPVTLGQPASISCKSSQSLLYSDGKTYLSWFQQRPGQSPRRLIYLVSKLESGVPDRFSGSGSGTDFTLKISRVEAEDVGVYYCWQGIDFHQTFGGGTKVEIK
3 | 0.822 |  |  | anti-MS4A4A antibody 4A-370 (antibody, V domains shown) VH: QVQLVQSGSELKKPGASVKVSCKASGYIFTSYGLSWVRQAPGQGLEWMGWINTYSGVPTYAQGFTGRFVFSLDTSVSTAYLQISSLKAEDTAVYYCARTLGDYWGQGTLVTVSS VL: DVVMTQSPLSLPVTLGQPASISCKSGQSLLYSDGKTYLSWFQQRPGQSPRRLIYLVSRLDSGVPDRFSGSGSGTDFTLKISRVEAEDVGVYYCWQGIDFHQTFGGGTKVEIK
4 | 0.833 |  |  | anti-MS4A4A antibody 4A-363 (antibody, V domains shown) VH: QVQLVQSGSELKKPGASVKVSCKASGYIFTSYGLSWVRQAPGQGLEWMGWINTYSGVPTYAQGFTGRFVFSLDTSVSTAYLQISSLKAEDTAVYYCARTLADYWGQGTLVTVSS VL: DVVMTQSPLSLPVTLGQPASISCKSSQSLLYSDGKTYLSWFQQRPGQSPRRLIYLVSKLSSGVPDRFSGSGSGTDFTLKISRVEAEDVGVYYCWQGIDFHQTFGGGTKVEIK
5 | 0.833 |  |  | anti-MS4A4A antibody 4A-374 (antibody, V domains shown) VH: QVQLVQSGSELKKPGASVKVSCKASGYIFTSYGLSWVRQAPGQGLEWMGWINTYSGVPTYAQGFAGRFVFSLDTSVSTAYLQISSLKAEDTAVYYCARTLVDYWGQGTLVTVSS VL: DVVMTQSPLSLPVTLGQPASISCKSSRSLLYSDGKTYLSWFQQRPGQSPRRLIYLVSKLDSGVPDRFSGSGSGTDFTLKISRVEAEDVGVYYCWQGIDFHQTFGGGTKVEIK
6 | 0.955 |  |  | anti-MS4A4A antibody 4A-371 (antibody, V domains shown) VH: QVQLVQSGSELKKPGASVKVSCKASGYIFTSYGLSWVRQAPGQGLEWMGWINTYSGVPTYAQGFTGRFVFSLDTSVSTAYLQISSLKAEDTAVYYCARTLGDYWGQGTLVTVSS VL: DVVMTQSPLSLPVTLGQPASISCKSSQSLLYSDGKTYLSWFQQRPGQSPRRLIYLVSKLDSGVPDRFSGSGSGTDFTLKISRVEAEDVGVYYCWQGIDFHQTFGGGTKVEIK
7 | 0.875 |  |  | anti-MS4A4A antibody 4A-366 (antibody, V domains shown) VH: QVQLVQSGSELKKPGASVKVSCKASGYTFTSYGLSWIRQAPGQGLEWMGWINTYSGVPTYAQGFTGRFVFSLDTSVSTAYLQISSLKAEDTAVYYCARTMVDYWGQGTLVTVSS VL: DVVMTQSPLSLPVTLGQPASISCKSSRSLLYSDGKTYLSWFQQRPGQSPRRLIYLVSKLDSGVPDRFSGSGSGTDFTLKISRVEAEDVGVYYCWQGIDFHQTFGGGTKVEIK
8 | 0.901 |  |  | anti-MS4A4A antibody 4A-368 (antibody, V domains shown) VH: QVQLVQSGSELKKPGASVKVSCKASGYTFTSYGLSWIRQAPGQGLEWMGWINTYSGVPTYAQGFTGRFVFSLDTSVSTAYLQISSLKAEDTAVYYCARTMVDYWGQGTLVTVSS VL: DVVMTQSPLSLPVTLGQPASISCKSSQSLLYSDGKTYLSWFQQRPGQSPRRLIYLVSKLESGVPDRFSGSGSGTDFTLKISRVEAEDVGVYYCWQGIDFHQTFGGGTKVEIK
9 | 0.996 |  |  | anti-MS4A4A antibody 4A-375 (antibody, V domains shown) VH: QVQLVQSGSELKKPGASVKVSCKASGYIFTSYGLSWVRQAPGQGLEWMGWINTYSGVPTYAQGFTGRFVFSLDTSVSTAYLQISSLKAEDTAVYYCARSLADYWGQGTLVTVSS VL: DVVMTQSPLSLPVTLGQPASISCKSSRSLLYSDGKTYLSWFQQRPGQSPRRLIYLVSKLDSGVPDRFSGSGSGTDFTLKISRVEAEDVGVYYCWQGIDFHQTFGGGTKVEIK
10 | 0.961 |  |  | anti-MS4A4A antibody 4A-367 (antibody, V domains shown) VH: QVQLVQSGSELKKPGASVKVSCKASGYTFTSYGLSWIRQAPGQGLEWMGWINTYSGVPTYAQGFTGRFVFSLDTSVSTAYLQISSLKAEDTAVYYCARTMVDYWGQGTLVTVSS VL: DVVMTQSPLSLPVTLGQPASISCKSSQSLLYSDGKTYLSWFQQRPGQSPRRLIYLVSKLDSGVPDRFSGSGSGTDFTLKISRVEAEDVGVYYCWQGIDFHQTFGGGTKVEIK
11 | 0.892 |  |  | anti-MS4A4A antibody 4A-359 (antibody, V domains shown) VH: QVQLVQSGSELKKPGASVKVSCKASGYIFTSYGLSWVRQAPGQGLEWMGWINTYSGVPTYAQGFTGRFVFSLDTSVSTAYLQISSLKAEDTAVYYCARTLADYWGQGTLVTVSS VL: DVVMTQSPLSLPVTLGQPASISCKASQSLLYSDGKTYLSWFQQRPGQSPRRLIYLVSKLDSGVPDRFSGSGSGADFTLKISRVEAEDVGVYYCWQGIDFHQTFGGGTKVEIK
12 | 0.845 |  |  | anti-MS4A4A antibody 4A-365 (antibody, V domains shown) VH: QVQLVQSGSELKKPGASVKVSCKASGYTFTSYGLSWIRQAPGQGLEWMGWINTYSGVPTYAQGFTGRFVFSLDTSVSTAYLQISSLKAEDTAVYYCARTMVDYWGQGTLVTVSS VL: DVVMTQSPLSLPVTLGQPASISCKSSQSLLYSDGKTYLSWFQQRPGQSPRRLIYLVSKLSSGVPDRFSGSGSGTDFTLKISRVEAEDVGVYYCWQGIDFHQTFGGGTKVEIK
13 | 0.873 |  |  | anti-MS4A4A antibody 4A-372 (antibody, V domains shown) VH: QVQLVQSGSELKKPGASVKVSCKASGYIFTSYGLSWVRQAPGQGLEWMGWINTYSGVPTYAQGFTGRFVFSLDTSVSTAYLQISSLKAEDTAVYYCARTLGDYWGQGTLVTVSS VL: DVVMTQSPLSLPVTLGQPASISCKSSQSLLYSDGKTYLSWFQQRPGQSPRRLIYLVSRLDSGVPDRFSGSGSGTDFTLKISRVEAEDVGVYYCWQGIDFHQTFGGGTKVEIK
14 | 0.959 |  |  | anti-MS4A4A antibody 4A-364 (antibody, V domains shown) VH: QVQLVQSGSELKKPGASVKVSCKASGYTFTSYGLSWIRQAPGQGLEWMGWINTYSGVPTYAQGFTGRFVFSLDTSVSTAYLQISSLKAEDTAVYYCARTMVDYWGQGTLVTVSS VL: DVVMTQSPLSLPVTLGQPASISCKASQSLLYSDGKTYLSWFQQRPGQSPRRLIYLVSKLDSGVPDRFSGSGSGADFTLKISRVEAEDVGVYYCWQGIDFHQTFGGGTKVEIK
15 |  | 670 | 18800 | anti-MS4A4A antibody 4A-21 (antibody, V domains shown) VH: QIQLVQSGPELKKPGETVKISCKASGYIFTSYGLSWVKQTPGKGLKWMGWINTYSGVPTYANDFKGRFAFSLETSASTTYLRINNLKNDDTATYFCARSLVDYWGQGTPLTVSS VL: not shown
